Target: recombinant YBX1 with a C-terminal 6×His tag (UniProt P67809 1-324)
Assay: BLI

Sequence of recombinant YBX1 with a C-terminal 6×His tag (P67809 whole entry): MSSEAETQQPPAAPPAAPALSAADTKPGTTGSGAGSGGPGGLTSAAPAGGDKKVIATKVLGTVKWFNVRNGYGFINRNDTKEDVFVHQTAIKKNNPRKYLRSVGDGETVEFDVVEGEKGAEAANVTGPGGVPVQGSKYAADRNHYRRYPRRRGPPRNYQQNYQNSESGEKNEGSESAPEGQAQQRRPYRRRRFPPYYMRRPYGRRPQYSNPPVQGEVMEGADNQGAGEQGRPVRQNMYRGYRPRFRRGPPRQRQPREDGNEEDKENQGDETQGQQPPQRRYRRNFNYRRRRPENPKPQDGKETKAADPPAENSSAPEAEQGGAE

Kd: 0.0248 nM
B1: recombinant GSDME with a C-terminal 6×His tag (natural protein)
chain: MFAKATRNFLREVDADGDLIAVSNLNDSDKLQLLSLVTKKKRFWCWQRPKYQFLSLTLGDVLIEDQFPSPVVVESDFVKYEGKFANHVSGTLETALGKVKLNLGGSSRVESQSSFGTLRKQEVDLQQLIRDSAERTINLRNPVLQQVLEGRNEVLCVLTQKITTMQKCVISEHMQVEEKCGGIVGIQTKTVQVSATEDGNVTKDSNVVLEIPAATTIAYGVIELYVKLDGQFEFCLLRGKQGGFENKKRIDSVYLDPLVFREFAFIDMPDAAHGISSQDGPLSVLKQATLLLERNFHPFAELPEPQQTALSDIFQAVLFDDELLMVLEPVCDDLVSGLSPTVAVLGELKPRQQQDLVAFLQLVGCSLQGGCPGPEDAGSKQLFMTAYFLVSALAEMPDSAAALLGTCCKLQIIPTLCHLLRALSDDGVSDLEDPTLTPLKDTERFGIVQRLFASADISLERLKSSVKAVILKDSKVFPLLLCITLNGLCALGREHS
